{
  "source": "patent US20250242017A1",
  "about": "“HISTAMINE AND HRH1 SIGNALING ACTIVITY AS BIOMARKERS AND ASSOCIATED METHODS” (Board of Regents, The University of Texas System, priority 2022, published 2025)",
  "molecules": {"B1": {"name": "Camrelizumab (antibody, chains of the INN, looked up, V domains shown)", "VH": "EVQLVESGGGLVQPGGSLRLSCAASGFTFSSYMMSWVRQAPGKGLEWVATISGGGANTYYPDSVKGRFTISRDNAKNSLYLQMNSLRAEDTAVYYCARQLYYFDYWGQGTTVTVSS", "VL": "DIQMTQSPSSLSASVGDRVTITCLASQTIGTWLTWYQQKPGKAPKLLIYTATSLADGVPSRFSGSGSGTDFTLTISSLQPEDFATYYCQQVYSIPWTFGGGTKVEIK", "notes": "anti-PD1 treatment of the basket-trial patients (Camrelizumab)"}},
  "key": {"peritoneal macrophages": {"system": "peritoneal macrophages", "details": "histamine 10 mM, vs vehicle-treated", "procedure": "Macrophage polarization and stimulation. To polarize macrophages toward an M1-like phenotype, we stimulated PBMC-derived macrophages or BMDMs with IFN-g (20 ng/ml, PeproTech) for 48 hours. To induce an M2-like phenotype, we treated THP-1-derived macrophages or BMDMs with IL-4 (20 ng/mL, PeproTech) for 48 hours. […] To stimulate macrophages with tumor cell-derived conditioned medium (TCM), we cultured BMDMs with complete medium containing 50% TCM (volume).\nFlow cytometry staining and analysis. Live single cells were sub-gated by staining with Fixable Viability Dye eFluor 450 (eBioscience) for 15 minutes at 4° C. For blocking of Fc receptors, cells were then pre-incubated with purified anti-CD16/32 antibody (clone 93, BioLegend) for 10 minutes on ice before immunostaining. After one wash with flow cytometry buffer, cells were incubated with appropriate dilutions of various combinations of the following antibodies. […]"}, "CD8+ T cells": {"system": "CD8+ T cells", "assay": "In vitro co-culture of macrophages with T cells", "assay_type": "cell-based, mouse", "details": "T cells co-cultured with histamine-treated macrophages vs vehicle-treated", "experimental": "In vitro co-culture with T cells. Spleens from wild-type C57BL/6 or BALB/c mice were harvested and filtered through a […] cell strainer to generate a single-cell suspension. After red blood cell lysis, splenocytes were counted and plated in complete Roswell Park Memorial Institute 1640 medium supplemented with […] b-mercaptoethanol and 10 mM HEPES onto 12-well plates coated with […] anti-CD3 (clone 145-2C11, BioLegend) and […] anti-CD28 (clone 37N, BioLegend) antibodies. Spleen T cells were activated for 48 hours before co-culture with macrophages. To educate the macrophages, we co-cultured naïve BMDMs with tumor cells at a ratio of 1:1 or with tumor cell-derived conditioned medium for 48 hours. Macrophages were seeded with activated T cells at a ratio of 5:1. After co-culture for another 24 or 48 hours, T cells were collected for flow cytometry analysis.\n(§1) Flow cytometry staining and analysis."}, "[1]": {"system": "early-stage breast cancer", "assay": "Retrospective analysis of medications in stage 0 or 1 breast cancer patients", "assay_type": "in vivo, human", "details": "poor outcome = recurrence or death; for estimated patient number with poor outcome: based on estimated 2.54% of patients taking the medication; for actual patient number with poor outcome: patients taking the medication", "from_the_text": "To explore whether some medications have impact on early-stage breast cancer recurrence, we performed a retrospective analysis of the most commonly prescribed medications took by patients with stage 0 or stage 1 breast cancer. Stage 0 and 1 breast cancers are highly treatable early-stage breast cancers and generally have very good prognosis in the first five years. Typically, surgery, radiation, or a combination of the two are the standard treatments. Hormone therapy, depending on the type of cancer cells and additional risk factors, is also an option. To rule out potential impact of the medications on therapies, patients who received treatment other than surgeries were excluded. 1652 patients diagnosed with stage 0 or 1 breast cancer at MDACC between 2016-2021 were enrolled in the study. 29 patients have been diagnosed with cancer recurrence (1.76%) and 3 out of 29 patients were deceased by 2021. Another 13 patients were also deceased, but whether cancer is the cause of their deaths is not clear. Altogether, total 42 patients (2.54%) have poor clinical outcome, including cancer recurrence or death. We first analyzed the 50 most prescribed drugs in USA which include many common drugs such as Aspirin, Simvastatin, and Metformin. About half of the drugs (24) were took by >100 patients based on their electric health record. To cover more medications, we further expanded the drug list by adding the top 20 over-the-counter medicines (OTC) sold on AMAZON website. To explore potential impact of medications on cancer recurrence and patient mortality, we compared the predicated patient numbers with poor clinical outcomes (X-axis) based on the estimated 2.54% (the ratio of total patients with poor outcome to total number of patients) versus the actual patient number with poor outcomes (Y-axis) of each medication (FIG. 15A). Most medications show limited impacts on patients' outcome, including Aspirin (8.5 vs. 8, estimated vs. actual patient number with poor outcome) and Metformin (3.5 vs 4). […] Instead, antihistamine may intercept or delay early-stage breast cancer progression by enhancing immune surveillance."}, "melanoma patients": {"system": "melanoma patients", "assay": "Retrospective Epic SlicerDicer analysis of anti-PD-1/PD-L1-treated melanoma patients", "assay_type": "in vivo, human", "details": "patients taking the medicine during anti-PD-1/PD-L1 treatment vs those who did not", "experimental": "Epic SlicerDicer software analysis. Our retrospective study was conducted on melanoma patients encountered during 2016-2017 at The University of Texas MD Anderson Cancer Center, which draws a diverse range of local, regional, national, and international patients. The study population consisted of all melanoma patients with of International Classification of Diseases (ICD) code C43 (10th version). Anonymized aggregate-level data were collected using the SlicerDicer function within MD Anderson Epic electronic medical records. Institutional Review Board approval was therefore waived. Using the Epic SlicerDicer, we identified 9922 patients with a visit diagnosis, billing diagnosis, or active problem list with malignant skin of melanoma (ICD-10-CM:C43, which includes all subgroups). EPIC SlicerDicer was used to further identify 878 of these patients who received anti-PD-1 antibodies (pembrolizumab, nivolumab, or cemiplimab) or anti-PD-L1 antibodies (durvalumab, atezolizumab, or avelumab) treatment during the study period. […] The estimated patient deaths of each subgroup were calculated based on the patient number of each subgroup and the average patient death rate (39%, based on deceased patients out of total patients analyzed). […] The survival time was calculated as the days between the two dates. […]"}, "VISTA+ BMDMs": {"system": "VISTA+ BMDMs", "assay": "VISTA membrane expression on macrophages after Ca2+ flux modulation", "assay_type": "cell-based, mouse", "from_the_text": "as §1"}, "breast cancer patients": {"system": "breast cancer patients", "assay": "Responses of anti-PD-1-treated breast cancer patients by plasma histamine", "assay_type": "in vivo, human", "details": "patient count, breast cancer (n = 10)", "from_the_text": "(§2) Human samples. The untreated breast cancer samples including tumor tissues and blood plasma from TNBC patients who had undergone a mastectomy before therapy, normal breast tissues from women undergoing cosmetic breast surgery, and blood plasma from colon cancer patients and healthy subjects were collected at the First Affiliated Hospital of Chongqing Medical University. The blood plasma from patients with advanced lung (n=48), colon (n=12) and breast (n=10) cancers were collected pre-anti-PD1 treatment (patients were treated with Camrelizumab between Dec. 24, 2019 and Feb. 27, 2021) at the Beijing Friendship Hospital of Capital Medical. Best percentage change in the sum of the diameters for the selected target lesion is defined by Response Evaluation Criteria in Solid Tumors (RECIST version 1.1) on minimum 2 computed tomographic scans before treatment and 1 computed tomographic scan during treatment. The use of pathological specimens, as well as the review of all pertinent patient records, were approved by the Research Ethics Committee of the First Affiliated Hospital of Chongqing Medical University (project approval number 1005367 2017-012) and the Research Ethics Committee of Beijing Friendship Hospital of Capital Medical University (project approval number 2017-P2-141-01), and written informed consent were obtained from each participant and/or their legal representative, as appropriate.\n(§3) Enzyme-linked immunosorbent assay (ELISA). The levels of histamine in cell culture supernatant, serum/plasma, and tissues were detected by Histamine ELISA kits (ENZ-KIT140-0001, Enzo; ab213975, Abcam) according to the manufacturer's instructions."}, "colon cancer patients": {"system": "colon cancer patients", "assay": "Responses of anti-PD-1-treated colon cancer patients by plasma histamine", "assay_type": "in vivo, human", "details": "patient count, colon cancer (n = 12)", "from_the_text": "as §2, §3"}, "lung cancer patients": {"system": "lung cancer patients", "assay": "Responses of anti-PD-1-treated lung cancer patients by plasma histamine", "assay_type": "in vivo, human", "details": "patient count, lung cancer (n = 48)", "from_the_text": "as §2, §3"}, "[2]": {"system": "lung cancer, breast cancer, and colon cancer patients", "assay": "Basket trial of anti-PD-1 treatment, response by pre-treatment plasma histamine (n=70)", "assay_type": "in vivo, human", "from_the_text": "as §2, §3"}, "[3]": {"details": "Histamine Low (<0.3 ng/ml), no patients in group"}, "[4]": {"details": "Histamine Medium (0.3-0.6 ng/ml)"}, "[5]": {"details": "patients with high levels of plasma histamine (>0.6 ng/mL)"}, "[6]": {"details": "patients with low levels of plasma histamine (<0.3 ng/mL)"}},
  "data": [
    {"molecule": "NCCc1c[nH]cn1", "note": "[histamine]", "values": [
      {"measurement": "M2-like marker CD206 and M1-like marker MHCII", "setting": "peritoneal macrophages", "value": "increased M2-like marker CD206 and reduced M1-like marker MHCII"},
      {"measurement": "T cell activation", "setting": "CD8+ T cells", "value": "significantly suppressed T cell activation"}
    ]},
    {"molecule": "CN(C)C(=N)N=C(N)N", "note": "[Metformin]", "values": [
      {"measurement": "estimated patient number with poor outcome", "setting": "[1]", "value": 3.5},
      {"measurement": "actual patient number with poor outcome", "setting": "[1]", "value": 4}
    ]},
    {"molecule": "CC(=O)Oc1ccccc1C(=O)O", "note": "[aspirin]", "values": [
      {"measurement": "death rate", "setting": "melanoma patients", "value": "reduced death rate"},
      {"measurement": "estimated patient number with poor outcome", "setting": "[1]", "value": 8.5},
      {"measurement": "actual patient number with poor outcome", "setting": "[1]", "value": 8}
    ]},
    {"molecule": "C[C@H](CCC(=O)O)C[C@H](C)C[C@H](C)C(=O)/C=C(\\O)[C@H](C)C[C@H](C)C/C=C/[C@@H](C)[C@@H](O)[C@@H](C)[C@@H](O)C[C@@H]1CC[C@@](C)([C@H]2CC[C@@](C)([C@@H](C)O)O2)O1", "note": "[ionomycin]", "values": [
      {"measurement": "cell-surface VISTA expression", "setting": "VISTA+ BMDMs; HRH1-/- TAMs, ionomycin", "value": "increased cell-surface VISTA expression"}
    ]},
    {"molecule": "CC1(C)S[C@@H]2[C@H](NC(=O)[C@H](N)c3ccccc3)C(=O)N2[C@H]1C(=O)O", "note": "[ampicillin]", "values": [
      {"measurement": "death rate", "setting": "melanoma patients", "value": "increased death rate"}
    ]},
    {"molecule": "CC(=O)OCOC(=O)CN(CC(=O)OCOC(C)=O)c1ccccc1OCCOc1ccccc1N(CC(=O)OCOC(C)=O)CC(=O)OCOC(C)=O", "note": "[BAPTA-AM]", "values": [
      {"measurement": "HRH1-mediated membrane VISTA expression", "setting": "VISTA+ BMDMs; WT TAMs, BAPTA-AM", "value": "reduced HRH1-mediated membrane VISTA expression"}
    ]},
    {"molecule": "B1", "values": [
      {"measurement": "Treatment response PD", "setting": "breast cancer patients; Histamine High (≥ 0.6 ng/ml)", "value": 4},
      {"measurement": "Treatment response PR", "setting": "breast cancer patients; Histamine High (≥ 0.6 ng/ml)", "value": 0},
      {"measurement": "Treatment response SD", "setting": "breast cancer patients; Histamine High (≥ 0.6 ng/ml)", "value": 2},
      {"measurement": "Treatment response PD", "setting": "breast cancer patients; [3]", "value": 0},
      {"measurement": "Treatment response PR", "setting": "breast cancer patients; [3]", "value": 0},
      {"measurement": "Treatment response SD", "setting": "breast cancer patients; [3]", "value": 0},
      {"measurement": "Treatment response PD", "setting": "breast cancer patients; [4]", "value": 1},
      {"measurement": "Treatment response PR", "setting": "breast cancer patients; [4]", "value": 1},
      {"measurement": "Treatment response SD", "setting": "breast cancer patients; [4]", "value": 2},
      {"measurement": "Treatment response PD", "setting": "colon cancer patients; Histamine High (≥0.6 ng/ml)", "value": 4},
      {"measurement": "Treatment response PR", "setting": "colon cancer patients; Histamine High (≥0.6 ng/ml)", "value": 2},
      {"measurement": "Treatment response SD", "setting": "colon cancer patients; Histamine High (≥0.6 ng/ml)", "value": 2},
      {"measurement": "Treatment response PD", "setting": "colon cancer patients; [3]", "value": 0},
      {"measurement": "Treatment response PR", "setting": "colon cancer patients; [3]", "value": 0},
      {"measurement": "Treatment response SD", "setting": "colon cancer patients; [3]", "value": 0},
      {"measurement": "Treatment response PD", "setting": "colon cancer patients; [4]", "value": 1},
      {"measurement": "Treatment response PR", "setting": "colon cancer patients; [4]", "value": 2},
      {"measurement": "Treatment response SD", "setting": "colon cancer patients; [4]", "value": 1},
      {"measurement": "Treatment response CR", "setting": "lung cancer patients; Histamine High (≥0.6 ng/ml)", "value": 0},
      {"measurement": "Treatment response PD", "setting": "lung cancer patients; Histamine High (≥0.6 ng/ml)", "value": 6},
      {"measurement": "Treatment response PR", "setting": "lung cancer patients; Histamine High (≥0.6 ng/ml)", "value": 2},
      {"measurement": "Treatment response SD", "setting": "lung cancer patients; Histamine High (≥0.6 ng/ml)", "value": 3},
      {"measurement": "Treatment response CR", "setting": "lung cancer patients; Histamine Low (<0.3 ng/ml)", "value": 1},
      {"measurement": "Treatment response PD", "setting": "lung cancer patients; Histamine Low (<0.3 ng/ml)", "value": 2},
      {"measurement": "Treatment response PR", "setting": "lung cancer patients; Histamine Low (<0.3 ng/ml)", "value": 9},
      {"measurement": "Treatment response SD", "setting": "lung cancer patients; Histamine Low (<0.3 ng/ml)", "value": 6},
      {"measurement": "Treatment response CR", "setting": "lung cancer patients; [4]", "value": 0},
      {"measurement": "Treatment response PD", "setting": "lung cancer patients; [4]", "value": 6},
      {"measurement": "Treatment response PR", "setting": "lung cancer patients; [4]", "value": 7},
      {"measurement": "Treatment response SD", "setting": "lung cancer patients; [4]", "value": 6},
      {"measurement": "disease control rate (DCR)", "setting": "[2]; [5]", "value": 44, "unit": "%"},
      {"measurement": "overall response rate (ORR)", "setting": "[2]; [5]", "value": 16, "unit": "%"},
      {"measurement": "disease control rate (DCR)", "setting": "[2]; [6]", "value": 88.3, "unit": "%"},
      {"measurement": "overall response rate (ORR)", "setting": "[2]; [6]", "value": 55.6, "unit": "%"}
    ]}
  ]
}
